Laboratory results as given in the nanobody polyreactivity screen of Harvey et al. (2022).

Test: yeast display, Sf9 membrane polyspecificity reagent, FACS + sequencing; frameworks hold sequencing errors
In short: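 Nanobodies came from a synthetic yeast display library in Saccharomyces cerevisiae BJ5465, induced with galactose for 36–48 hours and stained for 1 hour at 4 °C with 10% biotinylated, detergent-solubilized Sf9 membrane reagent. Cells were enriched on streptavidin microbeads and then FACS-sorted, with low and high (top ~1%) gates set on anti-HA fluorescence for expression and streptavidin fluorescence for reagent binding. Each polyreactivity label reflects the gate a clone came from. Genes were amplified by colony PCR, sequenced by MiSeq 2 × 250 and filtered by CDR length.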

Sequence	polyreactivity (PSR sort gate)
QVQRVESGGGLVQEGRSLRLSCAASGFIFSVYAMGWYRQAQGKERELVAAMTWNGGRTYYADSVKGRFRISRDHAKNTVYLQMNSVKPEDTAVYYCAADSRGALNSVYRYGSIVEGDYWGQGTQVTVSS	low polyreactivity
QVQLVESGGGLVQAGGSLRLSCAASGSIFGTNAMGGYRQAPGKERELVAAIRGSGGRTYYADSVKGRFTISRDKAKNTVYLEMNSLKPEDSAVYYCAAPGNPYCWGYNYYYWGQGTQVTVSS	high polyreactivity
QVQLVESGGGLVQAGGSLRLSCAASGRSFYRNAMGWYRQAPGKERELVAAITSSGASTYYADSVKGRFTISRDNAKNTVYLQMNSLKPEDTAVYYCAAKYVYSVGNYRYDYWGQGTQVTVSS	low polyreactivity
QVQLVESGGGLVQAGGSLRLSCAASGNTFPVYAMGWYRQASGKERELVATITSGGSTNYADSVKGRFTISRDNAKNTVYLQMNSLKQEDTAVYYCARRAVYSKRRYDYWGQGTQVTVSS	low polyreactivity
QVQLVESGGGLVQAGGSLRLSCAAYGRNFTYYAMGWYRQAPGKERELVAANSRSGGRTYYADSVKGRFTISRDNAKNTVYLQMNSLKPEDTGVYYCAADRLSLRAYDYWGQGTQVNVSS	high polyreactivity
QLQLVESGGGLGQAGGSLRLSCAASGSIFDHYAMGWYRQAPGKERELVASMSKCGGSTYYADSVKGRFTISRDNAKNTVYLQMNSLKPEDTAVYYCASKQYYRGHNYWGQGTQVTVSS	high polyreactivity
QVQLVESGGGLVQAGGSLRLSCAASGSINELYAKGWYRQAPGKERELVASITWRGGSTYYADSVKGRFTISRDNAKNTVYLQMNSLKPEDTAVYDCAADVPTASGTYDYWGQGTQVTVSS	low polyreactivity
QVQLVESGGGLVQAGGSLPLSCAASGSIFKTYAMGWYREAPGKERELVAAIRDSGDRTYYADSVKGRFTISRDNAKNTVYLQMNSLKPEDTAVYYCNARWQEALKYDYWGQGTQVTVSS	low polyreactivity
QVQLVESGGGLVQAGGSLRLSCAASGSTFYRYAMGWYRQAPGKERELVAVITSGGSTNYADSVKGRFTISRDNAKNTVYLQMNSLKPEDTAVYYCAKEDGYSQLKTTFDEAGYGSWGQGTQVTVSS	low polyreactivity
QVQLVESGVGLVQAGGSLRLRCAASGFTFRYYAMGWNRQAPGKERELVATMSSAGTTNYADSVKGRFTISRDNAKNTVYLPMNSLKPEDTAVYYCAKDLYYRHWRGGFWGQGTQVTVSS	low polyreactivity
QVQLVESGGGLVQAGGSLRLSCAASGSTFYRNAMGWSRPAPGKERELVAAINKSGGRTYYADSVKGRFTISRDNAKNTVYLQMNSLKPEDTAVYYCAAGVSVDLDYWGQGTQVTVSS	high polyreactivity
QVQLVESGGGLVQAGGSLRLSCAASGSISYYAMGWYRQAPGKEMELVAAISQSGGSTYYADSVKGRFTISRDNAKNTVYLQMNSLKPEDTAVYYCAAKSPYSSYYPYGYWGQGTQVTVSS	high polyreactivity
QVQLVESGGGLVQAGCSLRLSCAASGLTFAKYAMGWYRHAPGKEWELVAAISRSGGSTYYADSVKGRFTISRDNAKNTVYLQMNSLKPEDTAVYYCAKSSGTLWITKYDYWGQGTQVTVSS	low polyreactivity
QVQLVESGGGLVQAGGSLRLSCAASGSTFTWNAMGWYRQAPGKERELGASISGRGGSTYYADSVKGRFTISRDNAKNTVYLQMNSLKPEDTAVYYCAARGVSYHYPSGYDYWGQGTQVTVSS	high polyreactivity
QVQLVESGGGLVQAGGSLRLSCAASGNTINKYAMGWYRQAPGKERELVAAITRSGGSTYYADSVKGRFTISRDKAKNTVYLQMNSLKPEDTAVYYCAAAYWILYYPIDQAFDYWGQGTQVTVSS	low polyreactivity
QVQLEESGGGLVQAGGSLRLSCAASGSIFVGYAMGWYRQAPGKEREFVAAINYRGGSTFYADSVKGRFTISRDNAKNTVYLQMNSLKPEDTAVYYCAARYSGNRGVPKGYRYNYWGQGTQVTVSS	low polyreactivity
QVQLVESGGGLVQAGGSLRLTCAASGAIFEYYSMSWYIQAPGKERELVAAISSGGPTYYADSVKGRFTISRDNAKNTVYLQMNSLKPEDTAVYYCNADLWYPDYEYWGQGTQVNVSS	low polyreactivity
QVQLVESGGGLVQAGGSLRLSCAASGRTIRWNAMGWYRQAPGKERELVGAIDSVDNTYYADSVKGRFTISRYNAKNTVYLQMNSLKPEDTGVYYCARDPYWQVQMDYWGQGTQVTVSS	low polyreactivity
QVQLVESGGGLVQAGGSLRLSCAASGRIFNRYAMGWYRQAPGKERELVAAINSSGGSTYYADSVKGRFTISRDNAKNTVYLQMNSLKPEDTAVYYCARVSYHYRTYDYWGQGTQVTVSS	high polyreactivity
QVQLVESGGGLVHAGGSLRLSCAASGSNSNYYGMGWYRQAPGKERELVAAITWGGGRTNYADSVKGRFTISRDNAKNTVYLQMNSLKPEDTAVYYCAKVSVTHRYGAGGDYWGQGTQVTVSS	low polyreactivity
QVQLVESGGGLVQAGGSLRLICAASGRTFNSNVMGRSRQAPGKERELVAAISGSSGSTRYADSVKGRFTISRDNAKNTVYLQMNSLKPEDTEVYYCAAYPLYRRRWTGDYWGQGTQVTVSS	high polyreactivity
QVQLVESGGGLVQAGGSLRLSCAASGRTFYGYAMGWYRQAPGKERELVAAISSDTGGTDDTYYADSVKGRFTISRDNAKNTVYLQMNSLKPEDTAVYYCAAETEQGIIVTGLAYDYWGQGTQVTVSS	low polyreactivity

Sequence	polyreactivity (PSR sort gate)
QVQLVESGGGLVQAGGSLRISCAASGRTFYGYTMGWDRQAPGKERELVAAISRNGASTFYADSVKGRFTISRDNAKNTVYLQMNSLKPEDTAVYYCNARSWRHTDTSFEYWGQGTQVTVSS	high polyreactivity
QVQLQESGGGLVQAGGDLRLTCAASGNIFRDYIMGWYRQAPGKEREFVAGIDRGANTNYADSVKGRFTISRDNAKNTVYLQMNSLKPEDTAVYYCAVHTAIVPDFIYWGQGTQVTVSS	low polyreactivity
QVQLVESGGGLVQAGGSLRLSCAASGRIFTWNAMGWYRQAPGKERDLVARISSGTRTNYADSVKGRFTISRDNAKNTVYLQMNSLKPEDTAVYYCAAQSRPPFVKQYWWQRDYWGQGTQVTVSS	high polyreactivity
QVQLVESGGGLVQAGGSLRLSCAASGSIFPHYAMGWYREAPGKERELVAAISRGGSTNYADSVKGRFTISRDNAKNTVYLQMNSLKPEDTAVYYCNALRYYSRFQYAVAYRYDYWGQGTQVTVSS	high polyreactivity
QVQLVESGGGLVQAGGSLRLSCAASGSFFRNYAMGWYRQAPGKERELVAAISRRGTSTFYADSVKGRFTISRDNAMNTVYLQMNSLKPEDTAVYYCAARGSAGGDYGYWGQGTQVTVSS	high polyreactivity
QVQLVESGGGLVQAGGSLRLICAASGSIFGGYAMGWYIQAPGKERELVARITNGGSTYYADSVKGRFTISRDNAKNTVYLQMNSLKPEDTAVYYCNADWYAYPYGYWGQGTQVTVST	low polyreactivity
QVHLVESGGGLVQAGGSLRLSCAASGSILGGNAMGWYRQAPGKERELVAAITFSGGGTYYADSVKGRFTISRDNAKNTVYLQMNSLKPEDTAVYYCAADKDGYTYEFDYWGQGTQVTVSS	low polyreactivity
QVQLVESGGGVVQAGGSLRLSCAASGSTLAGYAMGWYRPAPGKERELVAAIDWTGGSTTYADSVKGRFTISRDYAKNTVYLQMNCLKPDDTAVYSCNVVLGVNGDYWGQGCQVTVSS	low polyreactivity
QVQLEESGGGLVQAGGSLRLSCAASGRTFDRYAMGWYRQAPGKERELVAAITWSGGRTYYADSVKGRFTISRVNAKNTVYLQMNSLKPEDTAVYYCAADNSYRGYHSPYDYWGQGTQVTVSS	low polyreactivity
QVQLVESGGGLVQAGGSLRLSCAASGLTFVYYAMGWYRQAPGKERELVAAISSGGSTYYADSVKGRFTISRDNAKNTVYLQMNSLKPEDTAVYYCAATYSSFRRYPGAHYRFGYWGQGTQVTVSS	high polyreactivity
QVQLVESRGGLVQAGGSLPLSCAPSGRIFVRYAMGWYRQAPGKERELVAAISKSGGTTYYADSVKGRFTISRDNAKNTVYLQMNSLKPEDTAVYYCYALVRRRPGYIRYDYWGQGSQVTVSS	low polyreactivity
QVQLVESGGGLVQAGGSLRLSCAASGITFVFYAMGWYRQAPGKARELVATISYRGTSTYYADSVKGRFTISRDNAKNTVYLQMNSLKPEDTAVSYCAGDTYIYYKTGYGYWGQGTQVTVSS	low polyreactivity
QVQLVESGGGLVQAGGSLRLSCAASGSIFIWYAMGWYRQAPGKERELVAAITSSGSTNYADSVKGRFTISRDNAKNTVYLQMNSLKPEDTAVYYCADEYTYYTYNLNYWGQGTQVTVSS	low polyreactivity
QVQLVESGGGLVQAGGSLRLSCAASGSNFSTYVMGWYRQAPGKERELVATISASDGSTYYADSVKGRFTISRDNAKNTVYLQMNSLKPEDSAVYYCAADTQEYRPTYDYWGQGTQVTVSS	low polyreactivity
QVQLVESGGGLVQAGGSLRLSCAASGSICGKNGMGWYRQAPGKERELVAAITSGGGNTYYADSVKGRFTISRDNAKNTVYLQMNSLKPEDTAVDYCAKGYRAYYWGFNYWGQGTQVTVSS	high polyreactivity
QVQLEESGGGLVQAGGSLRLSCAASGSTFRDNALGWYRQAPGKETELVAGITRGGITNYADSVKGRFTISRDNAKNTVYLQMNSLIPEDTAVYYCAAEVTGTYYDYDYWGQGTQVTVSS	low polyreactivity
QVQLVESGGGLVQAGGSLRLICAASGSTIGTNAMGWYRQAPGKERELVAAISRSGGRTYYADSVKGRFTISRDNAKNTVYLQMNSLKPEDTAVYYCAKAGLYTEYDYWGQGTQVTVSS	high polyreactivity
QVQLVESGGGLVQAGGSLRLSCAASGSTFYTNAMGWYRPAPGKERELVAAISASVGSTYYADSVKGRFTISRDNAKNTVYLQMNSLKPEDTAVYYCAADVWASRRYDYWGQGTQVTVSS	low polyreactivity
QVQLVESGGGLVQAGGSLRLSCAASGRTFYSYVMGWYRQAPGKEREFVADISQSGGRTFYSDSVKGRFTISRDNAKNTVYLQMNSLKPEDTAVYYCAAAKRGSYARGYYWGQGTQVTVSS	low polyreactivity
QVQRVESGGGLVQAGGSLRLSCAASGFTFRAYTMGWYRQAPGKDRELVAAITYSGGRRYYADSVKGRFTISRDNAKTTVYLQMNSLNPEDTAVYYCAKRGWALSEYYYWGQGTQVTVSS	high polyreactivity
QVQLVESGGGLVQAGGSLRLSCAASGNIFSYNAMGWYRQAPGKERELVAAITTSSGRTYYADSVKGRFTISRDNAKNTVYLQMNSLKPEDTAVYYCNRTVSRRSYRWDYDYWGQGTQVTVSS	high polyreactivity
